Measured values published in patent publication US20080267949A1, “Peptides capable of binding to serum proteins” (Ablynx N.V., priority 2006, published 2008).
Ends that are not written are not given here. c2 linker = not defined here

What was measured:
[1] = target: T1, rhErbB2-Fc antigen (R&D Systems) (human, UniProt P04626 23-652); assay: SPR: rhErbB2-Fc on a CM5 chip (~3000 RU), 2D3-17D12 injected alone or pre-incubated with 1 or 5 µM HSA (concentration of 2D3-17D12 not given)
T1 construct: Bought; also called HER2 antigen; Her-2 antigen; not shown: Fc part of the bought fusion; not described
Description: (§1) FIG. 11: Surface plasmon resonance analysis of simultaneous binding of 2D3-17D12 fusion protein to HER2 antigen and human serum albumin (HSA). 2D3-17D12 fusion protein was pre-incubated or not with 1 and 5 μM HSA, followed by flow over immobilized 2D3 target antigen, rhErbB2-Fc. The dotted line represents the binding characteristics of 2D3 in presence of 25 μM HSA.

[2] = target: T2, human serum albumin (HSA) (Homo sapiens, UniProt P02768); format: binding
T2 construct: purchased Sigma A5763
Description: FIG. 10: Surface plasmon resonance analysis of the binding of Nanobody® (2D3) and Nanobody® fusion peptide (2D3-17D12) on human serum albumin (HSA). Coating of the chip (CM5) was performed by amine coupling using NHS/EDC for activation and ethanolamine for deactivation (Biacore amine coupling kit). hip coated with 7000 RU human serum albumin (Sigma, 99% pure) and 2500 RU irrelevant protein antigen. 2D3 and 2D3-17D12 was successively injected over the chip in increasing concentrations (1.25 μM, 2.5 μM and 5 μM). HBS-EP was used as flow buffer at a rate of 10 μl min-1.20 μl of sample was injected for 20 s.
The 2D3-17D12 fusion protein […] […] […] (SEQ ID NO: 30) was expressed in E. coli TG1 cells. The fusion protein was purified by IMAC/SEC and binding to HSA was assessed in BIAcore™ 3000. Therefore, a dilution series of 2D3-17D12 fusion protein and 2D3 Nanobody was injected on a CM5 chip coated with high density HSA (7000RU). […] Calculated affinity of 2D3-17D12 for HSA is ˜10 μM.

[3] = tested on: irrelevant protein; assay: Surface plasmon resonance control on CM5 chip coated with irrelevant protein; format: binding; conditions: 2.5 μM injected; 2400 RU irrelevant protein
[4] = target: T3, rhErbB2-Fc antigen (Homo sapiens, UniProt P04626); assay: Surface plasmon resonance: simultaneous binding to HER2 and HSA, chip coated with rhErbB2-Fc; conditions: pre-incubated with HSA (1 and 5 μM); ~3000 RU rhErbB2-Fc
T3 construct: purchased R&D Systems
Description: as §1
To examine whether the 2D3 Nanobody and the 17D12 CDR3 can simultaneously bind their respective target antigen (Her-2 antigen for 2D3 Nanobody, albumin for 17D12 CDR3), the following experiment was performed. 2D3-17D12 fusion protein was pre-incubated or not with increasing concentration of HSA and then injected on a CM5 chip coated with rhErbB2-Fc antigen (R&D Systems) at a density of ˜3000 RU.

[5] = target: T4, human serum albumin (human, UniProt P02768 25-609); assay: SPR: biotinylated peptide captured on a streptavidin sensorchip, HSA injected for 4 min at 10 µl/min, reference-subtracted
T4 construct: Bought protein; also called HSA
Description: Binding of the 2 synthetic peptides Ala-17D12-CDR3 and Cys-Ala-17D12-CDR3 to HSA was assessed by surface plasmon resonance. The biotinylated peptides are each captured on streptavidin-coated sensorchip SA T071122. HSA binding is assessed at various concentrations. The samples were injected for 4 min at a flow rate of 10 ul/min over the activated and reference surfaces to allow for binding to chip-bound antigen. Next, binding buffer without HSA is sent over the chip at the same flow rate to allow for dissociation of bound HSA. After 10 min, remaining bound analyte is removed by injecting regeneration solution (50 mM NaOH).

[6] = target: T5, ovalbumin (negative control antigen) (UniProt P01012 2-386); assay: phage binding assay on coated Maxisorp wells, 5 phage dilutions per peptide, Odyssey image
T5 construct: Bought protein
T5 sequence (looked up): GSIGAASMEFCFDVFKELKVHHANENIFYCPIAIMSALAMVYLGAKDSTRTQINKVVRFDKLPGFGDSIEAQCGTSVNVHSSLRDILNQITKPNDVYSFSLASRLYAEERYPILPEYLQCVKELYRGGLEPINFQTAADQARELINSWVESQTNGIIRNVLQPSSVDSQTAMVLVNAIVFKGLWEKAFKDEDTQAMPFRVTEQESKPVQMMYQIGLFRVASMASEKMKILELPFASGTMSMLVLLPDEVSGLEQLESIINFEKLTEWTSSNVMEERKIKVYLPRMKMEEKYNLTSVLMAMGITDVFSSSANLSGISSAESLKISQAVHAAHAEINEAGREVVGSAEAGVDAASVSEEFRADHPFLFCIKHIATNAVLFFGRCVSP
Description: (§2) Binding of 17D12, as selected from primary screening after 2 selection rounds on HSA, to serum albumin of different species [mouse serum albumin (MSA, A3559, Sigma), cynomolgus serum albumin (CSA, in-house production), bovine serum albumin (BSA, A6003, Sigma) and HSA] and to negative control antigens [ovalbumin, human tumor necrosis factor α (TNF, in-house production)] was assessed using different phage concentrations. Additionally, similar binding studies were performed with two truncated variants of 17D12. Both peptides, i.e. 17D12-CDR3-NC (SEQ ID NO: 26) and 17D12-CDR3-C (SEQ ID NO;27), lack the flanking FR residues of 17D12 and the former is a non-constrained loop, whereas the latter is constrained (FIG. 4).
(§3) The phage binding assay was performed essentially as described in example 4. Full length 17D12 peptide as well as truncated peptides, 17D12-CDR3-NC and 17D12-CDR3-C, bind dose-dependently to HSA and CSA, whereas reactivity to MSA and BSA was not apparent in the assay performed (FIG. 6). There is no significant non-specific binding of 17D12 and 17D12-CDR3-NC to irrelevant proteins tested (ovalbumin and TNF). In contrast, there is a subtle degree of non-specific binding with the constrained truncated peptide.

[7] = target: T6, mouse serum albumin (mouse, UniProt P07724 25-608); assay: as above
T6 construct: also called MSA
T6 sequence (P07724 25-608 limits assumed): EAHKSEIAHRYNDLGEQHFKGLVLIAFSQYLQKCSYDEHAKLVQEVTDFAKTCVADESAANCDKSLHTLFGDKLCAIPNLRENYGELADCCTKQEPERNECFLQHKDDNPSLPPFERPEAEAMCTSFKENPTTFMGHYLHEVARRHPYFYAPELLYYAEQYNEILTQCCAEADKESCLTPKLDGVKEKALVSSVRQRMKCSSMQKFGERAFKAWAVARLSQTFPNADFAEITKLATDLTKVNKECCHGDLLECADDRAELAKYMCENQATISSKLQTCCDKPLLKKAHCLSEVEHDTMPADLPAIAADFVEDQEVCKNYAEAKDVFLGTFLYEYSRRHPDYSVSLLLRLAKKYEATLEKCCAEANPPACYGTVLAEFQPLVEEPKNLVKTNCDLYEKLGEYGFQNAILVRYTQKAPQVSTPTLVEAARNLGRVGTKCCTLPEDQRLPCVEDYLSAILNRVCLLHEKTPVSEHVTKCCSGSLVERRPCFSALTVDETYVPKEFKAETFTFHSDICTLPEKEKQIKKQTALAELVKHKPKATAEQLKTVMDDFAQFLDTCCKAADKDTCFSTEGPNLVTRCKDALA
Description: as §2, §3

[8] = target: T7, bovine serum albumin (bovine, UniProt P02769 25-607); assay: as above
T7 construct: also called BSA
T7 sequence (P02769 25-607 limits assumed): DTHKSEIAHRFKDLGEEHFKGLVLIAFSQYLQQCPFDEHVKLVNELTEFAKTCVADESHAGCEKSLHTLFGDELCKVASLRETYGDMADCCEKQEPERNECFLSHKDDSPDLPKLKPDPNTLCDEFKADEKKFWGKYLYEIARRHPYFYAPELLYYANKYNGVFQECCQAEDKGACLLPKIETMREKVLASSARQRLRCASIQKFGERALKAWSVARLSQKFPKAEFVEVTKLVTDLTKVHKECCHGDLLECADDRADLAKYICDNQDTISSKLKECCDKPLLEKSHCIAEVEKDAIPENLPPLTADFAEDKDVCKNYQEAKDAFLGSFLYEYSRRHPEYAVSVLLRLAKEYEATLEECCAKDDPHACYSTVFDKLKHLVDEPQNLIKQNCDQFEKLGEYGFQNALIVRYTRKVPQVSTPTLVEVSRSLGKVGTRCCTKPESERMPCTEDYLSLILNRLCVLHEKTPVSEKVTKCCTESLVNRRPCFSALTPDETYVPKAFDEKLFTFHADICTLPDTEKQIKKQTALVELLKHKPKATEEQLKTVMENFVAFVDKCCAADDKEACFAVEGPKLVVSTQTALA
Description: as §2, §3

[9] = target: T8, human tumor necrosis factor α (human, UniProt P01375 77-233); assay: as above
T8 construct: Negative control antigen; also called TNF
T8 sequence (P01375 77-233 limits assumed): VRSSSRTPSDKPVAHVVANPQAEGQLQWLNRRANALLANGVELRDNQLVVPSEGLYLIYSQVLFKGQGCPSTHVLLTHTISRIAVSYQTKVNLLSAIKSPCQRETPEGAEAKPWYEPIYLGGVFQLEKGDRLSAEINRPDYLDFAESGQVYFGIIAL
Description: as §2, §3

[10] = target: T9, cynomolgus serum albumin (cynomolgus, UniProt A2V9Z4 25-608); assay: phage binding assay on coated Maxisorp wells, 5 phage dilutions per peptide (concentrations not given), Odyssey image
T9 construct: also called CSA; cynoSA
T9 sequence (A2V9Z4 25-608 limits assumed): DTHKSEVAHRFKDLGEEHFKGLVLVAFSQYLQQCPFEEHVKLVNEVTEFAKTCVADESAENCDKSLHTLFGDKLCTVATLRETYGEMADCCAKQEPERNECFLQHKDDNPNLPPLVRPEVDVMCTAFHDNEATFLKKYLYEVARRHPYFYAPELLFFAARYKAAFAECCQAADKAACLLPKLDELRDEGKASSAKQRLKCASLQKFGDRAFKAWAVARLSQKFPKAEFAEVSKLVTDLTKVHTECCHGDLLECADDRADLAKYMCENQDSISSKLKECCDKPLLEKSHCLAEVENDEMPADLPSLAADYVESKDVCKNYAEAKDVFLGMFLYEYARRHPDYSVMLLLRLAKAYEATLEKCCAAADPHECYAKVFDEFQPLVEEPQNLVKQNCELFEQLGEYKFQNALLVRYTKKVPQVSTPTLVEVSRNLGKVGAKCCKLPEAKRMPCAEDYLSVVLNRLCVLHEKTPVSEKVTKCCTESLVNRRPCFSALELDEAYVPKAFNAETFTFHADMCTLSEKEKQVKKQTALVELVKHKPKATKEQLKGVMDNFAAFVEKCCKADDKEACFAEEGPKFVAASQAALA
Description: as §2, §3

[11] = target: T4, human serum albumin; assay: phage binding assay: 10 µg/mL HSA coated on Maxisorp, M13 phage displaying the peptide on pIII in 1/2 dilution series, anti-M13 + goat anti-mouse IRDye700, Odyssey intensity
Description: After two selection rounds, monoclonal phage were screened for binding on HSA versus negative control antigen, ovalbumin (A5378, Sigma). Wells of a Maxisorp microtiter plate (Nunc) were coated using 10 μg/mL HSA or ovalbumin and blocked with SuperBlock T20 PBS Blocking Buffer (Pierce) to prevent non-specific binding. Phages, produced in 96-well plate, were diluted 1/10 in 1:1 (v:v) Superblock T20 PBS Blocking Buffer:PBS+0.05% Tween-20 and incubated on both HSA and ovalbumin. Bound phages were detected using anti-M13 (GE Healthcare) and goat anti-mouse IRDye700 (Rockland) and signals were read-out on Odyssey (LI-COR Biosciences). […] This peptide is referred to as 17D12. Its full amino acid sequence is given in SEQ ID NO: 1, and its encoding nucleotide sequence is given in SEQ ID NO:2. The amino acid sequence of the CDR3 loop is given in SEQ ID NO:3.
The phage binding assay was performed essentially as described in example 3. Phages, produced in 10 mL culture volume, were incubated on both HSA and ovalbumin in a ½ dilution series, starting with 7.5×10¹¹ phages/mL. […] Non-specific binding to ovalbumin is slightly higher for the constrained truncated peptide.

[12] = target: T1, rhErbB2-Fc antigen (R&D Systems); assay: SPR: rhErbB2-Fc on a CM5 chip (~3000 RU), 2D3 injected in the presence of 25 µM HSA (concentration of 2D3 not given)
Description: as §1

[13] = target: T5, ovalbumin (negative control antigen); assay: phage binding assay: ovalbumin coated on Maxisorp, M13 phage in 1/2 dilution series from 10^12 phages/mL, Odyssey intensity
Description: The phage binding assay to HSA and ovalbumin was performed essentially as described in example 4. Phages, produced in 10 mL culture volume, were incubated on both HSA and ovalbumin in a ½ dilution series, starting with 10¹² phages/mL. Dose-dependent binding to HSA was retained upon fusion of the peptide 17D12 at the C-terminus of a non-albumin binding intact VHH in the presence or absence of a GlySer linker (FIG. 9).

B1: 2D3-17D12 fusion protein (other)
chain: EVQLVESGGSLVQPGGSLRLSCAASGFTFDDYAMSWVRQVPGKGLEWVSSINWSGTHTDYADSVKGRFTISRNNANNTLYLQMNSLKSEDTAVYYCAKNWRDAGTTWFEKSGSAGQGTQVTVSSDTAVYYCNAAASYSDYDVFGGGTDFGPWGQGTQVGGGS
notes: Soluble VHH-peptide fusion expressed in E. coli TG1 and purified by IMAC/SEC; also called Nanobody fusion peptide (2D3-17D12)
binding result [1]: binds

B2: 2D3-17D12: fusion of HER2-binding VHH 2D3 with HSA-binding peptide 17D12, expressed in E. coli TG1 (protein)
chain: EVQLVESGGSLVQPGGSLRLSCAASGFTFDDYAMSWVRQVPGKGLEWVSSINWSGTHTDYADSVKGRFTISRNNANNTLYLQMNSLKSEDTAVYYCAKNWRDAGTTWFEKSGSAGQGTQVTVSSDTAVYYCNAAASYSDYDVFGGGTDFGPWGQGTQVGGGS
modifications: 2D3-17D12 fusion protein
Kd [2]: ~10 µM
Binding to HSA (SPR) ([2]; 7000 RU HSA, injected at 1.25, 2.5 and 5 μM): dose-dependent binding
Binding to irrelevant protein (SPR control) [3]: no specific binding was detected
Off-rates on rhErbB2-Fc, premixed with HSA compared to control injection [4]: slightly higher but comparable off-rates

B3: Cys-Ala-17D12-CDR3 synthetic biotinylated peptide (acetyl-CAAASYSDYDVFGGGTDFGP-c2 linker-biotin) (peptide)
peptide: Ac-CAAASYSDYDVFGGGTDFGP-{c2 linker-biotin}
modifications: reading uncertain
notes: Captured on a streptavidin-coated sensor chip; HSA injected as analyte; also called PEO-101.5
binding result [5]: binds

AAASYSDYDVFGGGTDFGPA (peptide, not shown: large carriers, not fully specified, Tested as phage)
binding result [6]: no binding
binding result [7]: no binding
binding result [8]: no binding
binding result [9]: no binding
binding result [10]: binds
EC50 (read off the curve) [11]: ~7e+10 phage/mL

B4: Ala-17D12-CDR3 synthetic biotinylated peptide (acetyl-AAASYSDYDVFGGGTDFGP-c2 linker-biotin) (peptide)
peptide: Ac-AAASYSDYDVFGGGTDFGP-{c2 linker-biotin}
modifications: reading uncertain
notes: Captured on a streptavidin-coated sensor chip; HSA injected as analyte; also called PEO-100
binding result [5]: binds

B5: 2D3 Nanobody (VHH that specifically binds to HER2) (VHH)
VHH: EVQLVESGGSLVQPGGSLRLSCAASGFTFDDYAMSWVRQVPGKGLEWVSSINWSGTHTDYADSVKGRFTISRNNANNTLYLQMNSLKSEDTAVYYCAKNWRDAGTTWFEKSGSAGQGTQVTVSS
notes: also called VHH 2D3
binding result [12]: binds

B6: 17D12 peptide (CDR3 loop with flanking FR3 and FR4 residues), expressed on pIII of M13 phage (peptide)
peptide: DTAVYYCNAAASYSDYDVFGGGTDFGPWGQGTQV
modifications: not fully specified (C-terminus)
notes: also called full length 17D12; not shown: library construct: followed by His6 and c-myc tags, a short Gly-Ala-Ala linker and M13 pIII
binding result [7]: no binding
binding result [8]: no binding
binding result [9]: no binding
binding result [10]: binds
binding result [13]: no binding (tested: 100 x10^10 phage/mL)
EC50 (read off the curve) [11]: ~5e+10 phage/mL
